Measurements: publication PMC3134462 (2011)
Where no end group is shown, it is not given here. [ ]: non-standard residue; d: D form. pY = N[C@@H](Cc1ccc(OP(=O)(O)O)cc1)C(=O)O

Assays:
DLC-1 peptide (pY442) = biological target: T1, DLC-1 peptide (pY442) (Homo sapiens); test: SPR
T1 chain: CSRLSI[pY]DNVPG

[1] = biological target: T2, DLC-1 peptide (nonphosphorylated) (Homo sapiens); test: SPR
T2 chain: CSRLSIYDNVPG

- Kd (DLC-1 peptide (pY442)): ~31 nM
- Kd [1]: ~248 nM
B1: Tensin2 SH2 domain 1135-1248 (protein)
chain: DTSKFWYKPHLSRDQAIALLKDKDPGAFLIRDSHSFQGAYGLALKVATPPPSAQPWKGDPVEQLVRHFLIETGPKGVKIKGCPSEPYFGSLSALVSQHSISPISLPCCLRIPSK
